Source: patent US10428140B2, “Anti-EphA4 antibody” (EISAI R&D MANAGEMENT CO., LTD., priority 2015, dated 2019)

T1: human EphA7 (Homo sapiens, UniProt Q15375)
T1 construct: a protein of the extracellular region of each human Eph receptor fused with the SEAP protein and the His tag; made in house; host or cells: Expi293F cells (culture supernatant)
T1 sequence (Q15375 28-555 limits assumed): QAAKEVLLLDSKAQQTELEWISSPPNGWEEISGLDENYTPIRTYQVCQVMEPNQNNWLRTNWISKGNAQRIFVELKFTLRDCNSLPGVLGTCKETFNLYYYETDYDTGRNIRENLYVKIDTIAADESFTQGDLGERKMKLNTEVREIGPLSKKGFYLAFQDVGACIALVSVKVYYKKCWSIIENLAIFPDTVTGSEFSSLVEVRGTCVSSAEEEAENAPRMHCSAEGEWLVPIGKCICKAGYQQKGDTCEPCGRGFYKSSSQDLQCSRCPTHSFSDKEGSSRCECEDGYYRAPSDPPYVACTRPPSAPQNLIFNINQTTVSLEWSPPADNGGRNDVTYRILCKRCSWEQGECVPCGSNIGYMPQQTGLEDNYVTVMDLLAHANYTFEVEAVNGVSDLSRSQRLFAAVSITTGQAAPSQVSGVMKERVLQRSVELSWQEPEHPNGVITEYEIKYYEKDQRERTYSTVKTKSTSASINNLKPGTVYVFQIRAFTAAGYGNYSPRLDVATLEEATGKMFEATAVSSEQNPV

T2: human EphA8 (Homo sapiens, UniProt P29322)
T2 construct: a protein of the extracellular region of each human Eph receptor fused with the SEAP protein and the His tag; made in house; host or cells: Expi293F cells (culture supernatant)
T2 sequence (P29322 28-542 limits assumed): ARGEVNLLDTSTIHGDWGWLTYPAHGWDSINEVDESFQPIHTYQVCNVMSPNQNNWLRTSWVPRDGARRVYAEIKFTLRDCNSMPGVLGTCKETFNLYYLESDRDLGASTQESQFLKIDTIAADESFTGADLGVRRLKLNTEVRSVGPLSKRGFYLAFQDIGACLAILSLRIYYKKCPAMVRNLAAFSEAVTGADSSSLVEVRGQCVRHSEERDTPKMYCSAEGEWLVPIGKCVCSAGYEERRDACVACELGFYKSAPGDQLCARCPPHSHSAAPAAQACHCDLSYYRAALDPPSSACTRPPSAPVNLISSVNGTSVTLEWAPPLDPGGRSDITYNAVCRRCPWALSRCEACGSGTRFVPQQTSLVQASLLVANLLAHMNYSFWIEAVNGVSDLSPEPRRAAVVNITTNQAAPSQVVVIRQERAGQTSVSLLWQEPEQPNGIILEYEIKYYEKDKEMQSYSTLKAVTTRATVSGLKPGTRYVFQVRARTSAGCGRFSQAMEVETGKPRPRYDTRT


How the values were obtained:
[1] = target: T3, human EphA4 (binding to human Ephrin A5) (Homo sapiens, UniProt P54764); experiment: Human EphA4-human ligand binding inhibition ELISA of humanized antibodies (biotinylated Ephrin A5-Fc); conditions: biotinylated human Ephrin A5-Fc 0.7 nM
T3 construct: made in house; not restated for the human SEAP-His protein
T3 sequence (P54764 20-547): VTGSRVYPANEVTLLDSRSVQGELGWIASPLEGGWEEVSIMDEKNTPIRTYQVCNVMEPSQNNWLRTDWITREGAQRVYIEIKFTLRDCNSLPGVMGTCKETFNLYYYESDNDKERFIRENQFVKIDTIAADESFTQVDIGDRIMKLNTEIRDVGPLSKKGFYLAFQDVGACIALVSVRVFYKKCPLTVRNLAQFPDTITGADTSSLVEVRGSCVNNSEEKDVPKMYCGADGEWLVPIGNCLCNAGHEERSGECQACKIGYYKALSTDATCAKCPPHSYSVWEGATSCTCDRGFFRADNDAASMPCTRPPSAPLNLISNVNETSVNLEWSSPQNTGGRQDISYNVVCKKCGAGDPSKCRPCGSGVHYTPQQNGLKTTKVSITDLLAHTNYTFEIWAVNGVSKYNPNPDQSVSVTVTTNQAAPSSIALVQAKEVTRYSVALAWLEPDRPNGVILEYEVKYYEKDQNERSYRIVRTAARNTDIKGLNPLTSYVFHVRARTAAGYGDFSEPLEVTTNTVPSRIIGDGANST
Method in brief: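 Wells coated with anti-alkaline phosphatase antibody captured human EphA4 extracellular region-SEAP-His at 10 nM. Biotinylated human Ephrin A5-Fc (0.7 nM) and serially diluted humanized antibody (0-3000 nM) were added together for 1 h at room temperature. Bound ligand was detected with HRP-streptavidin and TMBZ at A450.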

[2] = target: T1, human EphA7; experiment: Selectivity ELISA of humanized antibodies for human Eph receptor; type: binding; conditions: coated protein 1 nM
Method in brief: (§1)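 His-tagged SEAP fusions of each human Eph receptor extracellular region, from Expi293F supernatants, were captured at 1 nM on anti-His-coated wells. Humanized antibody was bound 1 h at room temperature, then detected with HRP […] IgG. TMB development was acid-stopped and read at 450 nm.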

[3] = target: T2, human EphA8; experiment: as above; type: binding; conditions: coated protein 1 nM
Method in brief: as §1

Molecule	IC50 [1] [nM]	hEphA7-SEAP-: absorbance at 450 nm, percentage with respect to hEphA4-SEAP-His as 100% [2] [%]	hEphA8-SEAP-: absorbance at 450 nm, percentage with respect to hEphA4-SEAP-His as 100% [3] [%]
135 (antibody, V domains shown, synthetic humanized antibody heavy chain variable region sequence; synthetic humanized antibody light chain variable region sequence) VH: QVQLVQSGSELKKPGASVKVSCKASGYTFTDYSMHWVRQAPGQGLEWMGWINTETGEPTYADDFKGRFVFSLDTSVSTAYLQISSLKAEDTAVYYCARIPLYYYGSRYWYFDVWGQGTTVTVSS VL: EIVMTQSPATLSVSPGERATLSCRASENIYRNLAWYQQKPGQSPRLLIYAATNLADGIPARFSGSGSGTEYTLTISSLQSEDFAVYYCQHFWGTPWTFGQGTKVEIK	2.5	5.2	5.0
76 (antibody, V domains shown, synthetic humanized antibody heavy chain variable region sequence; synthetic humanized antibody light chain variable region sequence) VH: QVQLVQSGSELKKPGASVKVSCKASGYTFTDYSMHWVRQAPGQGLKWMGWINTETGEPTYAQGFTGRFVFSLDTSVSTAYLQISSLKAEDTAVYYCARIPLYYYGSRYWYFDVWGQGTTVTVSS VL: DIQMTQSPSSLSASVGDRVTITCRASENIYRNLAWYQQKPGKAPKLLVYAATNLADGVPSRFSGSGSGTDYTLTISSLQPEDFATYYCQHFWGTPWTFGQGTKVEIK	2.9	4.8	5.5
133 (antibody, V domains shown, synthetic humanized antibody heavy chain variable region sequence; synthetic humanized antibody light chain variable region sequence) VH: QVQLVQSGSELKKPGASVKVSCKASGYTFTDYSMHWVRQAPGQGLEWMGWINTETGEPTYAQGFTGRFVFSLDTSVSTAYLQISSLKAEDTAVYYCARIPLYYYGSRYWYFDVWGQGTTVTVSS VL: EIVMTQSPATLSVSPGERATLSCRASENIYRNLAWYQQKPGQSPRLLIYAATNLADGIPARFSGSGSGTEYTLTISSLQSEDFAVYYCQHFWGTPWTFGQGTKVEIK	3	4.6	4.7
132 (antibody, V domains shown, synthetic humanized antibody heavy chain variable region sequence; synthetic humanized antibody light chain variable region sequence) VH: QIQLVQSGSELKKPGASVKVSCKASGYTFTDYSMHWVRQAPGQGLKWMGWINTETGEPTYAQGFTGRFVFSLDTSVSTAYLQISSLKAEDTAVYYCARIPLYYYGSRYWYFDVWGQGTTVTVSS VL: EIVMTQSPATLSVSPGERATLSCRASENIYRNLAWYQQKPGQSPRLLIYAATNLADGIPARFSGSGSGTEYTLTISSLQSEDFAVYYCQHFWGTPWTFGQGTKVEIK	3.1	4.5	4.7

The remaining lines, values ahead:

IC50 [1] [nM]	hEphA7-SEAP-: absorbance at 450 nm, percentage with respect to hEphA4-SEAP-His as 100% [2] [%]	hEphA8-SEAP-: absorbance at 450 nm, percentage with respect to hEphA4-SEAP-His as 100% [3] [%]	Molecule
2.2	6.1	5.4	160 (antibody, V domains shown, synthetic humanized antibody heavy chain variable region sequence; synthetic humanized antibody light chain variable region sequence) VH: QIQLVQSGSELKKPGASVKVSCKASGYTFTDYSMHWVRQAPGQGLKWMGWINTETGEPTYADDFKGRFVFSLDTSVSTAYLQISSLKAEDTAVYYCARIPLYYYGSRYWYFDVWGQGTTVTVSS VL: DIQMTQSPSSLSASVGDRVTITCRASENIYRNLAWYQQKPGKAPQLLLYAATNLADGVPSRFSGSGSGTDYTLTISSLQPEDFATYYCQHFWGTPWTFGQGTKVEIK
2.9	4.7	4.8	75 (antibody, synthetic humanized antibody heavy chain variable region sequence; synthetic humanized antibody light chain variable region sequence; synthetic antibody constant region sequence) VH: QVQLVQSGSELKKPGASVKVSCKASGYTFTDYSMHWVRQAPGQGLEWMGWINTETGEPTYAQGFTGRFVFSLDTSVSTAYLQISSLKAEDTAVYYCARIPLYYYGSRYWYFDVWGQGTTVTVSS VL: DIQMTQSPSSLSASVGDRVTITCRASENIYRNLAWYQQKPGKAPKLLVYAATNLADGVPSRFSGSGSGTDYTLTISSLQPEDFATYYCQHFWGTPWTFGQGTKVEIK ASTKGPSVFPLAPSSKSTSGGTAALGCLVKDYFPEPVTVSWNSGALTSGVHTFPAVLQSSGLYSLSSVVTVPSSSLGTQTYICNVNHKPSNTKVDKRVEPKSCDKTHTCPPCPAPPAAAPSVFLFPPKPKDTLMISRTPEVTCVVVDVSHEDPEVQFNWYVDGVEVHNAKTKPREEQFNSTFRVVSVLTVVHQDWLNGKEYKCKVSNKGLPAPIEKTISKTKGQPREPQVYTLPPSREEMTKNQVSLTCLVKGFYPSDIAVEWESNGQPENNYKTTPPMLDSDGSFFLYSKLTVDKSRWQQGNVFSCSVMHEALHNHYTQKSLSLSPG
3	5.1	5.7	134 (antibody, V domains shown, synthetic humanized antibody heavy chain variable region sequence; synthetic humanized antibody light chain variable region sequence) VH: QVQLVQSGSELKKPGASVKVSCKASGYTFTDYSMHWVRQAPGQGLKWMGWINTETGEPTYAQGFTGRFVFSLDTSVSTAYLQISSLKAEDTAVYYCARIPLYYYGSRYWYFDVWGQGTTVTVSS VL: EIVMTQSPATLSVSPGERATLSCRASENIYRNLAWYQQKPGQSPRLLIYAATNLADGIPARFSGSGSGTEYTLTISSLQSEDFAVYYCQHFWGTPWTFGQGTKVEIK
4.4	4.7	4.7	67 (antibody, V domains shown, synthetic humanized antibody heavy chain variable region sequence; synthetic humanized antibody light chain variable region sequence) VH: QIQLVQSGSELKKPGASVKVSCKASGYTFTDYSMHWVRQAPGQGLKWMGWINTETGEPTYAQGFTGRFVFSLDTSVSTAYLQISSLKAEDTAVYYCARIPLYYYGSRYWYFDVWGQGTTVTVSS VL: DIQMTQSPSSLSASVGDRVTITCRASENIYRNLAWYQQKPGKAPKLLVYAATNLADGVPSRFSGSGSGTDYTLTISSLQPEDFATYYCQHFWGTPWTFGQGTKVEIK
